The assay has as its target 人IL-11Rα (全长基因, stably expressed on STAT3-luc HEK293 cells) (human) (UniProt Q14626). Description: cell-based or functional assay.
Chain of UniProt Q14626 (Q14626 23-422): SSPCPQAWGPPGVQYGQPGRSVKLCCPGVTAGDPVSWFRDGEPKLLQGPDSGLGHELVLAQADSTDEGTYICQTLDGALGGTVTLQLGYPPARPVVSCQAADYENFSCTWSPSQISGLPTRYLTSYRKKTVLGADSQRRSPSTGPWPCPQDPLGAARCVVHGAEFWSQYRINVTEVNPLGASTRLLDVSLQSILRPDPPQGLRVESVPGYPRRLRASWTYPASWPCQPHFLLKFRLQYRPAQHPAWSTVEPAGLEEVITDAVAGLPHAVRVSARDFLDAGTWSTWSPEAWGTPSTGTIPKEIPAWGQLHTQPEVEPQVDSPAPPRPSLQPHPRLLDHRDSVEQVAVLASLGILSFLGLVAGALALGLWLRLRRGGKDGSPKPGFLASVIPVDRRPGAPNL

In turn, IL-11 (ligand) yielded an IL-11刺激STAT3报告基因转录表达的EC50 of 0.11 ng/mL.

The record behind these values is CN116510007A.
